Read-outs that look alike come from different tables or passages of the source. No end group written: not given here.

Broadly, the EC50 is the concentration that produces a half-maximal response.

The target in test [1] is T1, human PTH-1 receptor (Homo sapiens, UniProt Q03431).
T1 sequence (Q03431 27-593): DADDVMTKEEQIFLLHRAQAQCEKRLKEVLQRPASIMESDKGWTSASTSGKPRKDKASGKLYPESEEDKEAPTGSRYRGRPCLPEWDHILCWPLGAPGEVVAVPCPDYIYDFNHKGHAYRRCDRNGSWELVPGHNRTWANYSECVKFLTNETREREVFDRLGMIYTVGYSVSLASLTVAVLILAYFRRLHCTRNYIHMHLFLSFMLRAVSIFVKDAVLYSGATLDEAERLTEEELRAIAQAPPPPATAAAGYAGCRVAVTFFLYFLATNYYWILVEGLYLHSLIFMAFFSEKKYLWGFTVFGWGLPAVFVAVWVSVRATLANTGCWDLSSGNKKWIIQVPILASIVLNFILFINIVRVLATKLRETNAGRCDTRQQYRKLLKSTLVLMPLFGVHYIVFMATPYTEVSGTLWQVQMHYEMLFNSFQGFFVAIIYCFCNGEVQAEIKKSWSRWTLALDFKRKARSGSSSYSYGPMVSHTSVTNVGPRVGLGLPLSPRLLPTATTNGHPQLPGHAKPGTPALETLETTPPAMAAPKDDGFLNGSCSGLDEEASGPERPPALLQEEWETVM
Briefly: cAMP accumulation in COS cells expressing the human PTH-1 receptor. It is filed as cell-based. The note with it: for cAMP accumulation as compared to basal levels in un-stimulated cells: 60 min at 21° C. How it is done: Intracellular cAMP accumulation is measured as described previously (Abou-Samra et al., J. Biol. Chem. 262:1129, 1986). Cells grown in 24-well plates are rinsed with culture medium containing 0.1% BSA and 2 mM IBMX. The cells are then incubated with an S-(L)n-B compound or derivatives thereof for 60 min. at 21° C. The supernatant is removed and the cells immediately frozen by placing the whole plate in dry ice powder. Intracellular cAMP is extracted by thawing the cells in 1 ml of 50 mM HCl and analyzed by a specific radioimmunoassay using an anti-cAMP antibody (e.g., Sigma, St. Louis, Mo.). A cAMP analog (2′-O-monosuccinyl-adenosine 3′:5′-cyclic monophosphate tyrosyl methyl ester, obtained from Sigma) which is used a tracer for cAMP is iodinated by the chloramine T method. Free iodine is removed by adsorbing the iodinated cAMP analog onto a C18Sep-pak cartridge (Waters, Milford, Mass.). After washing with dH20, the iodinated cAMP analog is eluted from the Sep-pak Cartridge with 40% acetonitrille (ACN) and 0.1% trifluoroacetic acid (TFA). The iodinated cAMP analog is lyophilized, reconstituted in 1 ml 0.1% TFA, and injected into a C18 reverse phase HPLC column (Waters). The column is equilibrated with 10% ACN in 0.1% TFA, and eluted with gradient of 10–30% ACN in 0.1% TFA. This allows separation of the mono-iodinated cAMP analog from the non-iodinated cAMP analog. The tracer is stable for up to 4 months when stored at −20° C. The standard used for the assay, adenosine 3′:5′-cyclic monophosphate, may be purchased from Sigma. Samples (1–10 µl of HCl extracts) or standards ([…]) are diluted in 50 Mm Na-acetate (pH 5.5), and acetylated with 10 μl of mixture of triethylamine and acetic anhydride (2:1 vol:vol). After acetylation, cAMP antiserum (100 μl) is added from a stock solution (1:4000) made in PBS (pH 7.4), 5 mM EDTA and 1% normal rabbit serum. The tracer is diluted in PBS (pH 7.4) with 0.1% BSA, and added (20,000 cpm/tube). The assay is incubated at 4° C. overnight. […] The supernatant is removed and the bound radioactivity is counted in a gamma-counter (Micromedic). […]
In order to screen for agonist activity, functional domain conjugate peptides of the invention were utilized in in vitro assays designed to measure cellular response via cAMP accumulation. Intracellular cAMP accumulation is measured as described previously (Abou-Samra et al., J. Biol. Chem. 262:1129, 1986).
Cells grown in 24-well plates are rinsed with culture medium containing 0.1% BSA and 2 mM IBMX. […] Intracellular cAMP is extracted by thawing the cells in 1 ml of 50 mM HCl and analyzed by a specific radioimmunoassay using an anti-cAMP antibody (e.g., Sigma, St. Louis, Mo.). […]
For orientation: Changes in cAMP serve as a functional read-out for many G protein-coupled receptors.

Test [2] addresses T2, wildtype PTH receptor (Rattus norvegicus, UniProt P25961).
T2 sequence (P25961 27-591): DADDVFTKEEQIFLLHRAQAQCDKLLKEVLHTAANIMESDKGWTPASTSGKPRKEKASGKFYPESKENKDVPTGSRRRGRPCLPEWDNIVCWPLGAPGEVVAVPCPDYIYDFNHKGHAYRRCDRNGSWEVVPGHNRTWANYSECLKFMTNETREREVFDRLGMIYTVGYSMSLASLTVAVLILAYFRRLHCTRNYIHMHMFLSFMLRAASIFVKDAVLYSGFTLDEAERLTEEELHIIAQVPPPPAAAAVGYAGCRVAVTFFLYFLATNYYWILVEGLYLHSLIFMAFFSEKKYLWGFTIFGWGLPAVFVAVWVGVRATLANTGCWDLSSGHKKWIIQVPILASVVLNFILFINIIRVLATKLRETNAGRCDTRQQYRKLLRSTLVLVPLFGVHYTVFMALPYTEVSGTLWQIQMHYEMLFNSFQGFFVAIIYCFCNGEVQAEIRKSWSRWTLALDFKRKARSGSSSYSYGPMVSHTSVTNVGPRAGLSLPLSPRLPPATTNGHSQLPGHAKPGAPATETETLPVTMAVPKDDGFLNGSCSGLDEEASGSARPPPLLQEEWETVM
As to conditions: read-out: EC50, cAMP formation, cited from earlier work.

The target in test [3] is T3, truncated PTH receptor (Rattus norvegicus, UniProt P25961).
T3 sequence (P25961 with tags, fused parts or gaps): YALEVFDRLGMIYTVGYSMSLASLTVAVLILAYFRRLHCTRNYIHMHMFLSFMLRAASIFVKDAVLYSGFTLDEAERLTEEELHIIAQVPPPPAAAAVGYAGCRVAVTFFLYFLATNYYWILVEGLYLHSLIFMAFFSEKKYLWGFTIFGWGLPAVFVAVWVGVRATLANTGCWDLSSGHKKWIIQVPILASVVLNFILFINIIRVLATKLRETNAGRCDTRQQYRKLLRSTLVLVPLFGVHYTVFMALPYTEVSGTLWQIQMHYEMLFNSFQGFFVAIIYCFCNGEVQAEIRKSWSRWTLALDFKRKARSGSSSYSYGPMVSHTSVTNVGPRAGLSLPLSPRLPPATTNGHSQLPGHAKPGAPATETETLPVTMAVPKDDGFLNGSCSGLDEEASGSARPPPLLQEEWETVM
The note with it: cited from earlier work.

As to “PTH(1–9)-(Gly)5-PTH(15–31) (AVSEIQLMHGGGGGLNSMERVEWLRKKLQDV; modified PTH sequence) [PG5, S-(L)n-B peptide: PTH(1–9), linker (Gly)5, PTH(15–31)]”, in test [1], the “cAMP accumulation as compared to basal levels in un-stimulated cells” value is given as “increased levels of cAMP accumulation”.
Still for that read-out and setting: then “PTH (1–9)-(Gly)7-PTH(17–31) (AVSEIQLMHGGGGGGGSMERVEWLRKKLQDV; modified PTH sequence) [PG7, S-(L)n-B peptide: PTH(1–9), linker (Gly)7, PTH(17–31)]”, with “increased levels of cAMP accumulation”; and “PTH (1–5)-(Gly)9-PTH(15–31) (AVSEIGGGGGGGGGLNSMERVEWLRKKLQDV; modified PTH sequence) [PG9, S-(L)n-B peptide: PTH(1–5), linker (Gly)9, PTH(15–31)]”, with “increased levels of cAMP accumulation”.
[Ala^1] PTH(1–14): the “bioactivity over the background level of bioactivity of the native PTH(1–14) peptide” value in test [1] (serine at position one replaced by alanine) was “measurable increase in bioactivity”.
As for “PTH(1–14) (AVSEIQLMHNLGKH; not fully specified (C-terminus); listed as Homo sapiens) [N-terminal fragment (1–14) of parathyroid hormone]”, the concentration for a half-maximal effect (EC50) in test [2] (intact receptor) was ~100 µM; in test [3] (read-out: EC50, cAMP formation), ~100 µM.
Consider PTH(1–34), for which the EC50 in test [2] (wildtype receptor) is ~0.003 µM. Moreover, the “potency, cAMP formation” value in test [3] is listed as “severly diminished”.

The values above are taken from patent publication US7057012B1, “PTH functional domain conjugate peptides, derivatives thereof and novel tethered ligand-receptor molecules” (The General Hospital Corporation, priority 1998, dated 2006).
